Substitutions are numbered along the chain they refer to. Numbers in names are those of the source.
T1: recombinant rat VISTA (His-tagged) (rat, UniProt A0ABK0L5H3 33-192)
T1 sequence: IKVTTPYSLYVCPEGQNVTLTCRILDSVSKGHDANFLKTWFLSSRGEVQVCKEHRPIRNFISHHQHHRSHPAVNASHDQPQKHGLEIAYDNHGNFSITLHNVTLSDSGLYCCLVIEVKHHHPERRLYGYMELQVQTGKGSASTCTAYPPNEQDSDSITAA

T2: recombinant mouse VISTA (His-tagged) (mouse, UniProt Q9D659 33-191)
T2 construct: also called murine VISTA; mVISTA
T2 sequence (looked up): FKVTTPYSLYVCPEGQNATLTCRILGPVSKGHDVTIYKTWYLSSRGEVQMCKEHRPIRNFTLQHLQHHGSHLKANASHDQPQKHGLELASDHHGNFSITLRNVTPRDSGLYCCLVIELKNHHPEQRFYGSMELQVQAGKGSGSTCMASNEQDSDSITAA

T3: rat VISTA expressed on cells (rat, UniProt A0ABK0L5H3 33-310)
T3 construct: whole, on cells; also called rat VISTA on HEK293T cells; VISTA on rat CD11b+ myeloid cells
T3 sequence: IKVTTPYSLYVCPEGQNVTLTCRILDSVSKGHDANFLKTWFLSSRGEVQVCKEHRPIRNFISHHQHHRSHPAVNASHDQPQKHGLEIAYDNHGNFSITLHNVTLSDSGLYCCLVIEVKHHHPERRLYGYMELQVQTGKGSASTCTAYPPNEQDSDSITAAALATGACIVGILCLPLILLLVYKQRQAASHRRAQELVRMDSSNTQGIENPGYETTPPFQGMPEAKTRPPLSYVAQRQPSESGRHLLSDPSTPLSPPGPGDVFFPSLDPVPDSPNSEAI

B1: anti-VISTA clone V4-C24 IgG1 (antibody, V domains shown)
VH: QVQLQESGPGLVKPSDTLSLTCTVSGYSITSDYTWNWIRQTPGKGLEWIGHITYSGSVSYNPSLRSRVTISRDTSKNQFSLKLSSVTAADTATYSCARALYYPWYFDVWGTGTTVTVSS
VL: EIVLTQSPATLSLSPGERATLSCRASSSVGYIHWYQQKPGQAPRPLIYTTSYRATGIPARFSGSGSGTDNTLTISSLEPEDSAVYYCQQWSSYPPITFGGGTKLEVKR
B2: anti-VISTA clone V4-C27 IgG1 (antibody, V domains shown)
VH: B1 VH
VL: B1 VL with T49A, S51Y, Y52N
B3: anti-VISTA clone V4-C26 IgG1 (antibody)
heavy: not shown
light: EIVLTQSPATLSLSPGERATLSCRASSSVGYIHWYQQKPGQAPRPIIYTTSNRATGIPARFSGSGSGTDNTLTISSLEPEDSAVYYCQQWSSYPPITFGGGTKLEVKRTVAAPSVFIFPPSDEQLKSGTASVVCLLNNFYPREAKVQWKVDNALQSGNSQESVTEQDSKDSTYSLSSTLTLSKADYEKHKVYACEVTHQGLSSPVTKSFNRGEC
B4: anti-VISTA clone 4M2-C12 IgG1 (antibody)
heavy: not shown
light: DIVITQTPAILSTSPGEKVTMTCRASSSVGYIHWYQQKPGSSPKPWIYATSNLASGVPARFSGSGSGTSNSLTITRVEAEDAATYYCQQWSSYPPITFGGGTKLEVKRTVAAPSVFIFPPSDEQLKSGTASVVCLLNNFYPREAKVQWKVDNALQSGNSQESVTEQDSKDSTYSLSSTLTLSKADYEKHKVYACEVTHQGLSSPVTKSFNRGEC
notes: mouse variable regions on human IgG1/kappa constant regions; also called V4; V4pr
B5: V4-C26 hIgG4 (antibody)
heavy: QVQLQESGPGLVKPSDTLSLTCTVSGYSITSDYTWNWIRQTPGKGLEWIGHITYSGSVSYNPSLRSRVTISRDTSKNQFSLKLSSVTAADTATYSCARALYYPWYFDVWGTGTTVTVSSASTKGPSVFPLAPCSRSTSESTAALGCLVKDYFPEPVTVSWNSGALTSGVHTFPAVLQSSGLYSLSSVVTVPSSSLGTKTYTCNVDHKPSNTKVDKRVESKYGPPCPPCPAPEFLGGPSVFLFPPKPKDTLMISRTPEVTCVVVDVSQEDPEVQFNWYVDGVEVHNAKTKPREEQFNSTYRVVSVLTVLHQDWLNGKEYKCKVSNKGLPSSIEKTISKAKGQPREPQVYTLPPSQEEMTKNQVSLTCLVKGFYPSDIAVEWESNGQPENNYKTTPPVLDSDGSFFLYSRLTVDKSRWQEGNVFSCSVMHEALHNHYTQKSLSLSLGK
light: B3 light
notes: human IgG4 (S228P)/kappa format; also called HMBD-002; HMBD-002-V4C26

target: T1, recombinant rat VISTA (His-tagged); assay: ELISA, plate coated with rat VISTA

Binder	EC50
B1	0.201 nM
B2	0.196 nM
B3	0.16 nM
B4	1.25 nM

target: T4, recombinant human VISTA (His-tagged) (human, UniProt Q9H7M9 33-194); assay: BLI (Octet), 1:1 global fit, His-tagged human VISTA captured
T4 construct: bought soluble protein (Sino Biological); also called hVISTA; human VISTA polypeptide

Binder	Kd	koff	kon
B1	< 0.001 nM	< 1e-07 s⁻¹	384000 M⁻¹ s⁻¹
B2	< 0.001 nM	< 1e-07 s⁻¹	465000 M⁻¹ s⁻¹
B3	< 0.001 nM	< 1e-07 s⁻¹	404000 M⁻¹ s⁻¹

target: T2, recombinant mouse VISTA (His-tagged); assay: ELISA, plate coated with mouse VISTA; unit nM from the legend paragraph 697

Binder	EC50
B1	0.017 nM
B2	0.0023 nM
B3	0.0089 nM
B4	0.43 nM

target: T5, recombinant cynomolgus macaque VISTA (His-tagged) (cynomolgus macaque, UniProt A0A7N9IB00 33-194); assay: ELISA, plate coated with cyno VISTA
T5 construct: also called cyno VISTA; cynomolgus monkey VISTA

Binder	EC50
B1	0.0385 nM
B2	0.0324 nM
B3	0.0356 nM
B4	0.0472 nM

target: T2, recombinant mouse VISTA (His-tagged); assay: ELISA, plate coated with mouse VISTA; unit nM from the legend paragraph 699

Binder	EC50
B1	0.116 nM
B2	0.073 nM
B3	0.086 nM

target: T6, human VISTA expressed on cells (human, UniProt Q9H7M9 33-311); assay: flow cytometry, HEK293T cells expressing the VISTA ortholog
T6 construct: also called HEK293 VISTA O/E; HEK293T or HEK293-6E cells overexpressing human VISTA
Procedure: (§1) To identify myeloid cells, PBMCs were further incubated with CD45 FITC and CD11b PE. Cells were washed again and resuspended in 200 μL of FACS flow buffer (PBS with 5 mM EDTA) for flow cytometric analysis using MACSQuant 10 (Miltenyi). After acquisition, all raw data were analyzed using Flowlogic software. Cells were gated using forward and side scatter, and the percentage of positive cells was determined.

Binder	EC50
B5	3.74 nM

target: T3, rat VISTA expressed on cells; assay: as above
Procedure: as §1

Binder	EC50
B5	4.13 nM

target: T2, recombinant mouse VISTA (His-tagged); assay: BLI (Octet), 1:1 global fit, mouse VISTA captured
Procedure: All measurements were performed at 25° C. with agitation at 1000 rpm. […] Sensograms were referenced for buffer effects and then fitted using the Octet QK384 user software (Pall ForteBio, USA).

Binder	Kd	koff	kon
B1	0.202 nM	7.6e-05 s⁻¹	378000 M⁻¹ s⁻¹
B2	0.395 nM	0.00016 s⁻¹	392000 M⁻¹ s⁻¹
B3	0.53 nM	0.0002 s⁻¹	382000 M⁻¹ s⁻¹

target: T2, recombinant mouse VISTA (His-tagged); assay: BLI (Octet), 1:1 global fit, His-tagged mouse VISTA captured

Binder	Kd	koff	kon
B1	< 0.001 nM	< 1e-07 s⁻¹	462000 M⁻¹ s⁻¹
B2	0.137 nM	5.5e-05 s⁻¹	398000 M⁻¹ s⁻¹
B3	0.183 nM	7.6e-05 s⁻¹	413000 M⁻¹ s⁻¹

target: T2, recombinant mouse VISTA (His-tagged); assay: as above; remark: another data set of the same source

Binder	Kd	koff	kon
B1	< 0.001 nM	< 1e-07 s⁻¹	401000 M⁻¹ s⁻¹
B2	< 0.001 nM	< 1e-07 s⁻¹	426000 M⁻¹ s⁻¹
B3	< 0.001 nM	< 1e-07 s⁻¹	403000 M⁻¹ s⁻¹

target: T4, recombinant human VISTA (His-tagged); assay: antigen-binding ELISA; HMBD-002 in F9, day 30 at 40°C

Binder	EC50
B5	0.0237 nM

target: T2, recombinant mouse VISTA (His-tagged); assay: ELISA, plate coated with mouse VISTA

Binder	EC50
B1	0.0304 nM
B2	0.0374 nM
B3	0.0325 nM
B4	0.387 nM

target: T4, recombinant human VISTA (His-tagged); assay: ELISA, plate coated with human VISTA; unit nM from the legend paragraph 699

Binder	EC50
B1	0.073 nM
B2	0.047 nM
B3	0.064 nM

target: T7, human PD-L1 (human, UniProt Q9NZQ7 19-239); assay: BLI (Octet), His-tagged human PD-L1 on anti-Penta-HIS biosensor, antibody 500-15.6 nM
T7 construct: captured through a His tag in the BLI experiments; also called hPD-L1; B7H1/PDL-1
T7 sequence (Q9NZQ7 19-239 limits assumed): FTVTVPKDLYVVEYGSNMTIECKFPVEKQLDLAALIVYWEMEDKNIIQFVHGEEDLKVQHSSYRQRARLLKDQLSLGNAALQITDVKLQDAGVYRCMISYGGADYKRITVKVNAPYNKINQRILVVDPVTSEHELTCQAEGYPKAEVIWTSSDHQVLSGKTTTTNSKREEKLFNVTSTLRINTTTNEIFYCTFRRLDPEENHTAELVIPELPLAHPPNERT
Procedure: (§2) Finally, the biosensors were incubated for 120 sec in PBS pH 7.2 to obtain the dissociation curves. Kinetic and affinity constants were calculated by global fitting of the association and dissociation data to a 1:1 binding model.

Binder	binding result
B1	no binding (tested: 500 nM)
B2	no binding (tested: 500 nM)
B3	no binding (tested: 500 nM)

target: T4, recombinant human VISTA (His-tagged); assay: ELISA, plate coated with human VISTA; unit nM from the legend paragraph 698

Binder	EC50
B1	0.032 nM
B2	0.037 nM
B3	0.038 nM

target: T2, recombinant mouse VISTA (His-tagged); assay: ELISA, plate coated with mouse VISTA; unit nM from the legend paragraph 698

Binder	EC50
B1	0.042 nM
B2	0.047 nM
B3	0.058 nM

target: T4, recombinant human VISTA (His-tagged); assay: ELISA, plate coated with human VISTA

Binder	EC50
B1	0.0268 nM
B2	0.0295 nM
B3	0.0241 nM
B4	0.0319 nM

target: T4, recombinant human VISTA (His-tagged); assay: BLI (Octet), 1:1 global fit, human VISTA captured
Procedure: as §2

Binder	Kd	koff	kon
B1	< 0.001 nM	< 1e-07 s⁻¹	373000 M⁻¹ s⁻¹
B2	0.119 nM	6.1e-05 s⁻¹	511000 M⁻¹ s⁻¹
B3	0.241 nM	9.8e-05 s⁻¹	407000 M⁻¹ s⁻¹

target: T4, recombinant human VISTA (His-tagged); assay: ELISA, plate coated with human VISTA; unit nM from the legend paragraph 697

Binder	EC50
B1	0.01 nM
B2	< 0.0007 nM
B3	0.0034 nM
B4	0.036 nM

Source: patent publication US20250313631A1 (HUMMINGBIRD BIOSCIENCE PTE, published 2025)
